First the molecules themselves.
B1: mouse MUSK full-length extracellular region (E22 to T494), Avi-His6, biotinylated (domain or fragment)
chain: EKLPKAPVITTPLETVDALVEEVATFMCAVESYPQPEISWTRNKILIKLFDTRYSIRENGQLLTILSVEDSDDGIYCCIANNGVGGAVESCGALQVKMKPKITRPPINVKIIEGLKAVLPCTTMGNPKPSVSWIKGDNALRENSRIAVLESGSLRIHNVQKEDAGQYRCVAKNSLGTAYSKLVKLEVEVFARILRAPESHNVTFGSFVTLRCTAIGIPVPTISWIENGNAVSSGSIQESVKDRVIDSRLQLFITKPGLYTCIATNKHGEKFSTAKAAATVSIAEWSKSQKDSQGYCAQYRGEVCDAVLAKDALVFFNTSYRDPEDAQELLIHTAWNELKAVSPLCRPAAEALLCNHLFQECSPGVVPTPMPICREYCLAVKELFCAKEWQAMEGKAHRGLYRSGMHLLPVPECSKLPSMHRDPTACTRLPYLDYKKENITTFPSITSSRPSADIPNLPASTSSFAVSPAYSMT
modifications: biotin (on the Avi tag, BirA in vitro)
B2: mouse MUSK Fz domain and C-terminal flanking sequence (D307 to T494), Avi-His6, biotinylated (domain or fragment)
chain: DSQGYCAQYRGEVCDAVLAKDALVFFNTSYRDPEDAQELLIHTAWNELKAVSPLCRPAAEALLCNHLFQECSPGVVPTPMPICREYCLAVKELFCAKEWQAMEGKAHRGLYRSGMHLLPVPECSKLPSMHRDPTACTRLPYLDYKKENITTFPSITSSRPSADIPNLPASTSSFAVSPAYSMT
modifications: biotin (on the Avi tag, BirA in vitro)
B3: human MUSK Fz domain and C-terminal flanking sequence (K314 to T495), Avi-His6, biotinylated (domain or fragment)
chain: KGYCAQYRGEVCNAVLAKDALVFLNTSYADPEEAQELLVHTAWNELKVVSPVCRPAAEALLCNHIFQECSPGVVPTPIPICREYCLAVKELFCAKEWLVMEEKTHRGLYRSEMHLLSVPECSKLPSMHWDPTACARLPHLDYNKENLKTFPPMTSSKPSVDIPNLPSSSSSSFSVSPTYSMT
modifications: biotin (on the Avi tag, BirA in vitro)
B5: human MUSK full-length extracellular region (E22 to T495), Avi-His6, biotinylated (domain or fragment)
chain: EKLPKAPVITTPLETVDALVEEVATFMCAVESYPQPEISWTRNKILIKLFDTRYSIRENGQLLTILSVEDSDDGIYCCTANNGVGGAVESCGALQVKMKPKITRPPINVKIIEGLKAVLPCTTMGNPKPSVSWIKGDSPLRENSRIAVLESGSLRIHNVQKEDAGQYRCVAKNSLGTAYSKVVKLEVEVFARILRAPESHNVTFGSFVTLHCTATGIPVPTITWIENGNAVSSGSIQESVKDRVIDSRLQLFITKPGLYTCIATNKHGEKFSTAKAAATISIAEWSKPQKDNKGYCAQYRGEVCNAVLAKDALVFLNTSYADPEEAQELLVHTAWNELKVVSPVCRPAAEALLCNHIFQECSPGVVPTPIPICREYCLAVKELFCAKEWLVMEEKTHRGLYRSEMHLLSVPECSKLPSMHWDPTACARLPHLDYNKENLKTFPPMTSSKPSVDIPNLPSSSSSSFSVSPTYSMT
modifications: biotin (on the Avi tag, BirA in vitro)

Among the targets are X2 hIgG; X3 hIgG; X17 hIgG; X3 mIgG.
Holding throughout (experiment): FACS
In assay [1] the target is B1.
For assay [2], the target named is B2.
For assay [3], the target named is B5.
Assay [4] addresses B3.

As usually defined, the Kd is a measure of binding affinity in units of concentration. Higher therefore signals lower affinity. In the case of B1, the Kd with X2 hIgG was 0.307 nM; in the assay with X3 hIgG it was 0.079 nM; in the assay with X17 hIgG, 1.04 nM; with X3 mIgG, 0.118 nM.

B2: the dissociation constant Kd with X2 hIgG came out at 0.265 nM; with X3 hIgG, 0.07 nM; with X17 hIgG, 0.68 nM; with X3 mIgG it was 0.096 nM.

Turning to B3, the dissociation constant (Kd) with X2 hIgG was found to be 0.421 nM; in the assay with X3 hIgG it was 0.057 nM; with X17 hIgG, 0.56 nM; with X3 mIgG it was 0.079 nM.

B4: MUSK agonist antibody X17, mouse IgG2a-LALAPG format (antibody, V domains shown)
VH: EVQLVESGGGLVQPGGSLRLSCAASGFTISYSSIHWVRQAPGKGLEWVASIYSSSGSTYYADSVKGRFTISADTSKNTAYLQMNSLRAEDTAVYYCARGDHGYYVFGYLGMDYWGQGTLVTVSS
VL: DIQMTQSPSSLSASVGDRVTITCRASQSVSSAVAWYQQKPGKAPKLLIYSASSLYSGVPSRFSGSRSGTDFTLTISSLQPEDFATYYCQQSYKPGALITFGQGTKVEIK
With B4, the Kd is 1.1 nM in assay [1], 0.74 nM in assay [2], 0.97 nM in assay [3] and 0.61 nM in assay [4].

Consider B5, for which the dissociation constant (Kd) with X2 hIgG was found to be 0.478 nM; with X3 hIgG, 0.074 nM; with X17 hIgG, 0.86 nM; with X3 mIgG, 0.113 nM.
